The subject of assay [1] is 575 putative partners (preys) of 22 WT SH3-containing proteins. As to the kind of experiment: DHFR-PCA on solid medium, WT and SH3-deleted baits (Fig. 1B). The format is cell-based, Saccharomyces cerevisiae. The note with it: for medrep (log2 median colony size normalized to plate background, PCA score): label = prey; for Ratio (SH3-deleted/WT medrep): only significant differences shown, PPIs completely lost have a ratio of 0.1, gained PPIs 2.5. Details: key to Score: 0: SH3-independent; 1: SH3-dependent PPIs; 2: SH3-inhibited PPIs. The text has this:
To assess the requirement of SH3 domains for PPIs in vivo, we first measured binary interactions between 22 WT SH3-containing proteins (Supplementary Fig. 1A) as baits and 575 putative partners from their interconnected signaling networks using the dihydrofolate reductase protein–fragment complementation assay (DHFR-PCA) in the budding yeast Saccharomyces cerevisiae. About 33% (202/607) of the PPIs detected were described before, mostly by direct methods (Supplementary Fig. 1B, C)[11]. We repeated the experiments with baits in which the SH3s were individually replaced with a flexible linker by genome editing (SH3 domain deletion/stuffing, Fig. 1A). The stuffer DNA sequence ([…]) codes for a small flexible poly-Gly with Ser peptide ([…]) that is inspired by previous experiments[12],[13]. About a third of the SH3-containing protein interactome is qualitatively or quantitatively SH3-dependent (171 PPIs out of 607, Fig. 1B and Supplementary Fig. 1B, C). We validated the vast majority of the quantitative changes in low-throughput experiments and excluded that this is simply due to changes in protein abundance in most cases (Supplementary Fig. 1D–G). SH3-binding motifs[14] are more frequent in the SH3-dependent PPI partners when compared to sequences from random proteins, SH3-independent PPI partners or PPI partners that are stronger or gained following SH3 deletions (p values = 1.5 × 10^−17, 0.0038 and 2.1 × 10^−08, respectively; Mann–Whitney test, one-tailed, Fig. 1C). The changes we measure are therefore enriched for PPIs that depend on the direct interactions of the domains with the PPI partners.
The complete list of strains, primers, and gRNAs used in this study can be found in Supplementary Tables 1–3. All constructed yeast strains were validated by polymerase chain reaction (PCR) and confirmed by Sanger sequencing of the locus of interest. Bait strains for the DHFR-PCA experiments were constructed as follows. The genes of interest were fused at their genomic 3′ end by replacing the stop codon with a linker ([…]), the DHFR F[1,2] followed by a smaller linker (GGGGS), a 1× FLAG tag ([…]) and the NATMX4 resistance cassette via homologous recombination (all amplified from pAG25-DHFR[1,2]-linker-FLAG). The set of 615 prey strains (DHFR F[3] fusions in the BY4742 background) were retrieved from the Yeast Protein Interactome Collection[43] with the exception of 73 that were reconstructed (Supplementary Tables 1 and 2). Knockout strains were taken from the yeast knockout collection except for ABP1, BEM1, BZZ1, and SLA1, which were reconstructed by replacing the ORFs with the NATMX4 resistance cassette by homologous recombination in the BY4741 background.
Yeast SH3 domain genomic sequences were replaced by CRISPR–Cas9 genome editing. Each SH3 domain (as defined by the SMART database V8.0 except for Ysc84 SH3 (as defined by PROSITE), see Source Data for all SH3 sequences and Supplementary Table 1 for primers used) was specifically targeted by one gRNA[46]. Yeast competent cells were co-transformed with a pCAS plasmid (Addgene plasmid 60847[47]) expressing both the gRNA of interest and Streptococcus pyogenes Cas9[46] and a donor DNA sequence (stuffer) with 60 bp homology arms surrounding the SH3 DNA sequence. The Stuffer DNA was either PCR amplified or digested from a plasmid. The stuffer DNA sequence ([…]) codes for a small flexible linker ([…]) inspired by protein linkers used in structural biology[12],[13]. This type of linker is frequently used for fusing proteins without affecting the structure of the linked proteins.
The overall DHFR-PCA pipeline is based on Tarassov et al.[43] and the procedures have also been published as a visualized protocol. The screens were performed with robotically manipulated pin tools (BM5-SC1, S&P Robotics Inc.). First, the preys were cherry-picked from 96-well plates to omnitrays in a 384 format on YPD + HPH solid media. […]

The subject of the next assay is ABP1. As to the kind of experiment: DHFR-PCA on solid medium, bait ABP1 (Fig. 1B). The format is cell-based, Saccharomyces cerevisiae. The conditions noted are these: bait ABP1, label = prey; for medrep (log2 median colony size normalized to plate background, PCA score): 2-4 replicates. The text has this:
Supplement 41467_2021_21873_MOESM8_ESM.xlsx, sheet "Fig1B" | column: medsize; medrep; Ratio; Score

The mark [2] stands for this setting: bait SLA1-2, DHFR-PCA, Replicates 4 (2 for YCR009C, YDR388W).
[3] abbreviates: bait SLA1-3, DHFR-PCA, Replicates 4 (2 for YCR009C, YDR388W, YIL033C).

B1: YNL229C (protein, UniProt P23202 2-354, looked up)
Transcriptional regulator URE2: MNNNGNQVSNLSNALRQVNIGNRNSNTTTDQSNINFEFSTGVNNNNNNNSSSNNNNVQNNNSGRNGSQNNDNENNIKNTLEQHRQQQQAFSDMSHVEYSRITKFFQEQPLEGYTLFSHRSAPNGFKVAIVLSELGFHYNTIFLDFNLGEHRAPEFVSVNPNARVPALIDHGMDNLSIWESGAILLHLVNKYYKETGNPLLWSDDLADQSQINAWLFFQTSGHAPMIGQALHFRYFHSQKIASAVERYTDEVRRVYGVVEMALAERREALVMELDTENAAAYSAGTTPMSQSRFFDYPVWLVGDKLTIADLAFVPWNNVVDRIGINIKIEFPEVYKWTKHMMRRPAVIKALRGE
As to B1, the “medrep (log2 median colony size normalized to plate background, PCA score)” value in assay [1] (setting [2]) was determined as 1.546; in assay [1] (setting [3]), 1.546; in the assay on ABP1 it was 1.889. Also, the Score in assay [1] (bait SLA1-2, label = prey) is given as 1; in assay [1] (bait SLA1-3, label = prey) it was 0. The “Ratio (SH3-deleted/WT medrep)” value in assay [1] (bait SLA1-2, label = prey) was found to be 0.1.

B2: YNL307C (protein, UniProt P21965 2-375, looked up)
Protein kinase MCK1: STEEQNGVPLQRGSEFIADDVTSNKSNNTRRMLVKEYRKIGRGAFGTVVQAYLTQDKKNWLGPFAIKKVPAHTEYKSRELQILRIADHPNIVKLQYFFTHLSPQDNKVYQHLAMECLPETLQIEINRYVTNKLEMPLKHIRLYTYQIARGMLYLHGLGVCHRDIKPSNVLVDPETGVLKICDFGSAKKLEHNQPSISYICSRFYRAPELIIGCTQYTTQIDIWGLGCVMGEMLIGKAIFQGQEPLLQLREIAKLLGPPDKRFIFFSNPAYDGPLFSKPLFSGSSQQRFEKYFGHSGPDGIDLLMKILVYEPQQRLSPRRILAHQFFNELRNDDTFLPRGFTEPIKLPNLFDFNDFELQILGEFADKIKPTKVAE
As to B2, the “medrep (log2 median colony size normalized to plate background, PCA score)” value in assay [1] (setting [2]) was found to be 1.966; in assay [1] (setting [3]) it was 1.966; with ABP1, 1.521. For the same molecule, the Score came out at 1 in assay [1] (bait SLA1-2, label = prey) and 0 in assay [1] (bait SLA1-3, label = prey). For the same molecule, the “Ratio (SH3-deleted/WT medrep)” value in assay [1] (bait SLA1-2, label = prey) came to 0.1.

B3: YNL106C (protein, UniProt P50942 1-1183, looked up)
Polyphosphatidylinositol …: MKILLSKQQTRKIAIVSETHGLVFRPINSKNSRRSTCAVELVPKAELNGNGFRRLSNHEIYGFIGLIEIEGLMFIATITGKSKVAQPIPNKTVNKIYAVDFFCLNNSKWDFMDIDSSGYPIVTNDGDFAISSPPSISTHSSRSSLRSSSSRSLNAQEQAPKHPCHELRKLLSNGSFYYSTDFDLTCTLQKRGFTEHSLSFDDFDREFMWNSFLMDEIITYRDRLDVTAKELLDQRGFLTTVIRGFAETIFSYINRLKVGLTIISRQSWKRAGTRFNARGIDDDGHVANFVETEMIMYSSQYCYAFTQIRGSLPIFWEQDTSLISPKIQITRSVEATQPTFDEHFIRLFKKYGPVHIINLLSTKSSEIQLSRRYKEQLKNSEKMKIGRDVFLTSFDFHRETSQDGFAAASRIIPKIRNTILDAGYFSYDVKEGRLISEQDGVFRTNCLDCLDRTNLIQQTISLAVFKLFLEDFRLVKPSSFIDDNEFVQKVNALWADNGDQISQIYTGTNALKSSYSRKGKMSFSGALSDATKSVSRMYINNFVDKGKQQNIDTLLGKLPHQQVVELYDPICEYVNERLLESEEKFTTHSNINLFVGTFNVNGNSRRADLSKWLFPIGDKFKPDVVVLGLQEVIELTAGSILNADYTKSSFWETMVTDCLNQYEEKYLLLRVEQMSSLLILFFARSDRAYNIKEVGGSTKKTGFGGITGNKGAVAIRFDYGATSFCFVNTHLSAGASNIDERRNDYNNIYRNITFPRSKTIPHHDSLFWLGDLNYRITLTNDEVRRELRAQKDGYIDRLLQYDQLTQEINEGVVFQGFKEPTLQFRPTYKYDYGTDNYDTSEKARTPSWTDRIIYKGENLHPLAYSDAPLKISDHKPVYAAYRANVKFVDEKEKLNLVEKLYAEYKNTHPEALTTGPDELSHARMEKQKESIPLDATVQSAGIKLIDLDDTSSCVSPLLSGPSPQPSVVGPGGLSNVSPDKSKLNVLPPPPPTSRHNKEPSSKLLSPTKEISIVSVSPRKGESNLPALERHSTPKPLPPVPALSLSKPVSLQKSSSELQHAKETIDNGKIVPRPCPPIRRKSSTAPDEISTSTKNSGVSTTEDPEPAKASTKPEKPPVVKKPHYLSVAANKLNTSQEHSIKVSPSNSKSEEELPCKKKSKPKVPAKNPELEKLSVHPLKPCDPN
Consider B3, for which the “medrep (log2 median colony size normalized to plate background, PCA score)” value in assay [1] (setting [2]) turned out to be 1.813; in assay [1] (setting [3]) it was 1.813; in the assay with ABP1, 3.9733. Also, the Score in assay [1] (bait SLA1-2, label = prey) is 1; in assay [1] (bait SLA1-3, label = prey), 1. The “Ratio (SH3-deleted/WT medrep)” value was determined as 0.1 in assay [1] (bait SLA1-2, label = prey) and 0.1 in assay [1] (bait SLA1-3, label = prey).

B4: YCR009C (protein, UniProt P25343 1-265, looked up)
Reduced viability upon …: MSWEGFKKAINRAGHSVIIKNVDKTIDKEYDMEERRYKVLQRAGEALQKEAKGFLDSLRAVTASQTTIAEVISNLYDDSKYVAGGGYNVGNYYLQCVQDFDSETVKQLDGPLRETVLDPITKFSTYFKEIEEAIKKRDHKKQDFDAAKAKVRRLVDKPAKDASKLPRAEKELSLAKDIFENLNNQLKTELPQLVSLRVPYFDPSFEALIKIQLRFCTDGYTRLAQIQQYLDQQSRDDYANGLLDTKIEELLGQMTSLDICALGIK
B4: the “medrep (log2 median colony size normalized to plate background, PCA score)” value in assay [1] (setting [2]) amounted to 2.15; in assay [1] (setting [3]), 2.15; with ABP1 it was 4.682. Moreover, the Score in assay [1] (bait SLA1-2, label = prey) is 1; in assay [1] (bait SLA1-3, label = prey), 0. Further, the “Ratio (SH3-deleted/WT medrep)” value in assay [1] (bait SLA1-2, label = prey) is recorded as 0.1.

B5: YFR004W (protein, UniProt P43588 1-306, looked up)
Ubiquitin carboxyl-terminal …: MERLQRLMMNSKVGSADTGRDDTKETVYISSIALLKMLKHGRAGVPMEVMGLMLGEFVDDYTVNVVDVFAMPQSGTGVSVEAVDDVFQAKMMDMLKQTGRDQMVVGWYHSHPGFGCWLSSVDVNTQKSFEQLNSRAVAVVVDPIQSVKGKVVIDAFRLIDTGALINNLEPRQTTSNTGLLNKANIQALIHGLNRHYYSLNIDYHKTAKETKMLMNLHKEQWQSGLKMYDYEEKEESNLAATKSMVKIAEQYSKRIEEEKELTEEELKTRYVGRQDPKKHLSETADETLENNIVSVLTAGVNSVAIK
Regarding B5, the results for the “medrep (log2 median colony size normalized to plate background, PCA score)” value (in assay [1] (setting [2]); in assay [1] (setting [3]); with ABP1) were 2.485, 2.485 and 3.9898, respectively. In addition, the Score came to 1 in assay [1] (bait SLA1-2, label = prey) and 0 in assay [1] (bait SLA1-3, label = prey). Moreover, the “Ratio (SH3-deleted/WT medrep)” value in assay [1] (bait SLA1-2, label = prey) is 0.1; with ABP1 (only significant differences showed, PPIs completely lost have a ratio of 0.1 and the gained PPIs 2.5), 1.738.

For the origin of these results see article PMC7954794, “Protein context shapes the specificity of SH3 domain-mediated interactions in vivo” (Nature Communications, 2021).
